Drawing on PMC2667179, this text covers stoichiometry N for 1 substance.

This assay deals with sucrose synthase (Nicotiana tabacum (endogenous in BY-2 cells)). Kind of assay: native gel or EMSA; two-dimensional blue native PAGE (4-14.5% gradient, 4°C) then SDS-PAGE of BY-2 plasma membrane proteins solubilized with 1% n-octyl-beta-D-glucopyranoside (750 mM amino caproic acid, 100 mM BisTris pH 7.0); subunits detected by immunoblotting on separate blots; association judged by comigration. For orientation: A gel shift assay detects complexes by their altered migration in electrophoresis.

As to sucrose synthase (enzyme), the stoichiometry N amounted to 4.

Broadly, the stoichiometry N is the number of molecules, sites or subunits per partner or assembly.
